Results published in patent publication US20230192886A1 (published 2023).

T1: PRAME (PRAME-004) peptide on HLA-A*02:01 (human)
T1 peptide: SLLQHLIGL

B1: R17P1D7 (TCR, V domains shown)
Valpha: AQTVTQSQPEMSVQEAETVTLSCTYDTSESDYYLFWYKQPPSRQMILVIRQEAYKQQNATENRFSVNFQKAAKSFSLKISDSQLGDAAMYFCAYRWAQGGSEKLVFGKGTKLTVNP
Vbeta: EADIYQTPRYLVIGTGKKITLECSQTMGHDKMYWYQQDPGMELHLIHYSYGVNSTEKGDLSSESTVSRIRTEHFPLTLESARPSHTSQYLCATELWSSGGTGELFFGEGSRLTVL
B2: R16P1E8 (TCR, V domains shown)
Valpha: QKEVEQDPGPLSVPEGAIVSLNCTYSNSAFQYFMWYRQYSRKGPELLMYTYSSGNKEDGRFTAQVDKSSKYISLFIRDSQPSDSATYLCAMSEAAGNKLTFGGGTRVLVKP
Vbeta: EAGVAQSPRYKIIEKRQSVAFWCNPISGHATLYWYQQILGQGPKLLIQFQNNGVVDDSQLPKDRFSAERLKGVDSTLKIQPAKLEDSAVYLCASSYTNQGEAFFGQGTRLTVV
B3: R17P1A9 (TCR, V domains shown)
Valpha: QKEVEQNSGPLSVPEGAIASLNCTYSDRGSQSFFWYRQYSGKSPELIMSIYSNGDKEDGRFTAQLNKASQYVSLLIRDSQPSDSATYLCAVLNQAGTALIFGKGTTLSVSS
Vbeta: DSGVTQTPKHLITATGQRVTLRCSPRSGDLSVYWYQQSLDQGLQFLIQYYNGEERAKGNILERFSAQQFPDLHSELNLSSLELGDSALYFCASSAETGPWLGNEQFFGPGTRLTVL

Target: T1, PRAME (PRAME-004) peptide on HLA-A*02:01
Assay: cytokine release

Binding result, recognises:
B1
B2
B3
